The target of the test is PorKN heterodimer unit (P. gingivalis). Put plainly: cryo-EM structure.

“And” between values parts separate entries of the source, which are not always exact repeats. Equal values may be shown once.

Consider PorKN heterodimer unit (complex), for which the stoichiometry N was 31 to 35 (2×) and 33.

Values taken from article PMC12635249.
